Paper PMC9482650, “Quantitative fragmentomics allow affinity mapping of interactomes” (Nature Communications, 2022)

T1: MPDZ_12, O75970
T1 sequence (O75970 1857-1958, limits assumed, looked up): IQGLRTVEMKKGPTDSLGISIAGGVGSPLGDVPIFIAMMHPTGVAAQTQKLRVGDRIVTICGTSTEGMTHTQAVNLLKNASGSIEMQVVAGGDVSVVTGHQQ

T2: MPP2, Q14168
T2 sequence (Q14168 180-250, limits assumed, looked up): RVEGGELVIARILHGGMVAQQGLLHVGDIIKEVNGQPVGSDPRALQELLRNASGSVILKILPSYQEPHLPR

T3: SHANK1, Q9Y566
T3 sequence (Q9Y566 658-767, limits assumed, looked up): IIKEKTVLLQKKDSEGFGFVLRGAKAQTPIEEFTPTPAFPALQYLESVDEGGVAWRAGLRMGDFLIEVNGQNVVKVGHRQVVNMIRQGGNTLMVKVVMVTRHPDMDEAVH

T4: DLG3_3, Q92796
T4 sequence (Q92796 374-475, limits assumed, looked up): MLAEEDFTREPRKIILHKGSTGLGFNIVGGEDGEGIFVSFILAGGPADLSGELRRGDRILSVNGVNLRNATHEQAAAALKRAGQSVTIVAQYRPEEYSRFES

T5: APBA3_1, O96018
T5 sequence (O96018 389-490, limits assumed, looked up): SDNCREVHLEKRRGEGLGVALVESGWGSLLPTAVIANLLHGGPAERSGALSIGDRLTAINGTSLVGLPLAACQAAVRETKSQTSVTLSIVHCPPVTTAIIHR

T6: DFNB31_3, Q9P202
T6 sequence (Q9P202 811-907, limits assumed, looked up): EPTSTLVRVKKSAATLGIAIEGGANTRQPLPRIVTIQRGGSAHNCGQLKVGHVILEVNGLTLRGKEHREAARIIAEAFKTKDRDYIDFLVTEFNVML

T7: PDZD7_3, Q9H5P4
T7 sequence (Q9H5P4 857-944, limits assumed, looked up): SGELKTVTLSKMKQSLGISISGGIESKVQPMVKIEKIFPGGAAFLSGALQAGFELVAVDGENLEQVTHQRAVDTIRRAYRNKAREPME

T8: LNX2_2, Q8N448
T8 sequence (Q8N448 334-432, limits assumed, looked up): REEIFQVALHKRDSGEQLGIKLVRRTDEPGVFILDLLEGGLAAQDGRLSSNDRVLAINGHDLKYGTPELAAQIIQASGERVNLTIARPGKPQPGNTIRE

T9: DFNB31_1, Q9P202
T9 sequence (Q9P202 135-233, limits assumed, looked up): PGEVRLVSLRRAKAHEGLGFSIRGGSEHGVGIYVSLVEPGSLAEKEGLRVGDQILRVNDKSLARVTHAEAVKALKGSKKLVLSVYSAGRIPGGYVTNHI

T10: MPP6, Q9NZW5
T10 sequence (Q9NZW5 125-219, limits assumed, looked up): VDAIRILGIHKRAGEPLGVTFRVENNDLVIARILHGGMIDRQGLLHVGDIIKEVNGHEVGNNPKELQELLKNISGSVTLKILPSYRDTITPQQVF


Columns and labels:
Assay in all cases: holdup assay
Parameters in all cases: key: below the threshold = too weak to quantify, mostly under pKd 3.1 to 4
Conditions in all cases: plain residues with an end cap or a label only (N-terminal biotin on a linker: ado-ado)
MPDZ_12, O75970 = biological target: T1, MPDZ_12, O75970
Inadl_1, Q8NI35 = biological target: Inadl_1, Q8NI35
Inadl_1, Q8NI35, sequence (Q8NI35 113-229): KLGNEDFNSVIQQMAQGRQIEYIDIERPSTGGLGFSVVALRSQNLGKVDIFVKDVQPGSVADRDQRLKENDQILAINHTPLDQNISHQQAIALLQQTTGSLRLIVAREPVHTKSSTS

MPP2, Q14168 = biological target: T2, MPP2, Q14168
PTPN3, P26045 = biological target: PTPN3, P26045
PTPN3, P26045, sequence (P26045 505-587): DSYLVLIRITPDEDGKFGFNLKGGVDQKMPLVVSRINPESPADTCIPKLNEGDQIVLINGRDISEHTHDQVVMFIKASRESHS

SHANK1, Q9Y566 = biological target: T3, SHANK1, Q9Y566
DLG4_2, P78352 = biological target: DLG4_2, P78352
DLG4_2, P78352, sequence (P78352 155-259): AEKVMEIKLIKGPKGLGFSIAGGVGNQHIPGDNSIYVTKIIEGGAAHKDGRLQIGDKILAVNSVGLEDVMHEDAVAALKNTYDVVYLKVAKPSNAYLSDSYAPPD

SCRIB_3, Q14160 = biological target: SCRIB_3, Q14160
SCRIB_3, Q14160, sequence (Q14160 999-1103): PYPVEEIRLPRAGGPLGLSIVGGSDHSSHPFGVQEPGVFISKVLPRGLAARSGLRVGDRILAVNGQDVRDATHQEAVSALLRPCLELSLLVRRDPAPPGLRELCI

IL16_3, Q14005 = biological target: IL16_3, Q14005
IL16_3, Q14005, sequence (Q14005 1107-1207): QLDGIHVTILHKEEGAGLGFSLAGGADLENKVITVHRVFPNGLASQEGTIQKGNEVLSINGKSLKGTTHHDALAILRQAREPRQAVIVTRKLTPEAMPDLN

LIMK2, P53671 = biological target: LIMK2, P53671
LIMK2, P53671, sequence (P53671 143-248): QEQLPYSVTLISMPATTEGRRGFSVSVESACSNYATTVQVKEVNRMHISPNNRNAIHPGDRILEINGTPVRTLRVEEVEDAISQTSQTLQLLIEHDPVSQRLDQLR

CASK, O14936 = biological target: CASK, O14936
CASK, O14936, sequence (O14936 487-570): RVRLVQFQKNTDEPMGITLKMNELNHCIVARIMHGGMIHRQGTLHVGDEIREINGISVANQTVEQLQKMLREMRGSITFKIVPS

MAGI3_2, Q5TCQ9 = biological target: MAGI3_2, Q5TCQ9
MAGI3_2, Q5TCQ9, sequence (Q5TCQ9 398-503): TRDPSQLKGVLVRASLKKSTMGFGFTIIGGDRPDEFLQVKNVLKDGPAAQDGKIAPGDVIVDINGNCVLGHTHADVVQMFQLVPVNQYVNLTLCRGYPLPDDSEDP

Inadl_8, Q8NI35 = biological target: Inadl_8, Q8NI35
Inadl_8, Q8NI35, sequence (Q8NI35 1425-1530): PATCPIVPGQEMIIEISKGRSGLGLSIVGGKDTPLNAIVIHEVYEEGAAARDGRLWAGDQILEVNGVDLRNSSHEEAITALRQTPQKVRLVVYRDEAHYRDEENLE

DLG3_3, Q92796 = biological target: T4, DLG3_3, Q92796
GRIP2_3, Q9C0E4 = biological target: GRIP2_3, Q9C0E4
GRIP2_3, Q9C0E4, sequence (Q9C0E4 238-339): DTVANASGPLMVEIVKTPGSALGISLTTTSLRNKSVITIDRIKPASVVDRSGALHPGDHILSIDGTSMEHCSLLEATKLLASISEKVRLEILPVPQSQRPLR

APBA3_1, O96018 = biological target: T5, APBA3_1, O96018
MAGI2_4, Q86UL8 = biological target: MAGI2_4, Q86UL8
MAGI2_4, Q86UL8, sequence (Q86UL8 772-865): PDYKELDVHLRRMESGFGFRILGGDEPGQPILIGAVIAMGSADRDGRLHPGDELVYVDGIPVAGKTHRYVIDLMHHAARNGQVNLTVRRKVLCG

GRIP2_4, Q9C0E4 = biological target: GRIP2_4, Q9C0E4
GRIP2_4, Q9C0E4, sequence (Q9C0E4 446-548): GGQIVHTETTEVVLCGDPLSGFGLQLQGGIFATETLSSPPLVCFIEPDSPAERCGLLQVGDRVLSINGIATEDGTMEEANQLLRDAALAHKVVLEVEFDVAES

DFNB31_3, Q9P202 = biological target: T6, DFNB31_3, Q9P202
TJP1_3, Q07157 = biological target: TJP1_3, Q07157
TJP1_3, Q07157, sequence (Q07157 416-512): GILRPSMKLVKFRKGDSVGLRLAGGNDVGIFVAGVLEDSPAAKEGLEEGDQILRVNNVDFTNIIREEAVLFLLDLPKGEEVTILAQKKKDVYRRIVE

LDB3, O75112 = biological target: LDB3, O75112
LDB3, O75112, sequence (O75112 1-94): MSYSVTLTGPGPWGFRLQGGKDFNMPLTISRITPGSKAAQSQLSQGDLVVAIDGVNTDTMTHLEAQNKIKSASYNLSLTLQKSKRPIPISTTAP

GRIP2_5, Q9C0E4 = biological target: GRIP2_5, Q9C0E4
GRIP2_5, Q9C0E4, sequence (Q9C0E4 544-642): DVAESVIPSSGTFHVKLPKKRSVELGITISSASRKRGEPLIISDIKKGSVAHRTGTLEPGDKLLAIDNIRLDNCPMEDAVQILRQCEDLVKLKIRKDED

GRIP2_6, Q9C0E4 = biological target: GRIP2_6, Q9C0E4
GRIP2_6, Q9C0E4, sequence (Q9C0E4 648-740): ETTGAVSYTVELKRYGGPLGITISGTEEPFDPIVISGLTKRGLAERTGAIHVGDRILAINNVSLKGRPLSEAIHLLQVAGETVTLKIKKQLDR

FRMPD3, Q5JV73 = biological target: FRMPD3, Q5JV73
FRMPD3, Q5JV73, sequence (Q5JV73 12-100): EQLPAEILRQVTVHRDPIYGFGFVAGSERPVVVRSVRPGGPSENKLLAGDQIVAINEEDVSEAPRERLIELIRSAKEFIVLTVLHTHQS

PDZD7_3, Q9H5P4 = biological target: T7, PDZD7_3, Q9H5P4
DLG4_1, P78352 = biological target: DLG4_1, P78352
DLG4_1, P78352, sequence (P78352 62-152): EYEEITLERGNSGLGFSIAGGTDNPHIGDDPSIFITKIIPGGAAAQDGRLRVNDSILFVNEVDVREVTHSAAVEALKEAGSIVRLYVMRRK

LNX2_2, Q8N448 = biological target: T8, LNX2_2, Q8N448
DFNB31_1, Q9P202 = biological target: T9, DFNB31_1, Q9P202
MPP6, Q9NZW5 = biological target: T10, MPP6, Q9NZW5
MAGI2_6, Q86UL8 = biological target: MAGI2_6, Q86UL8
MAGI2_6, Q86UL8, sequence (Q86UL8 1141-1229): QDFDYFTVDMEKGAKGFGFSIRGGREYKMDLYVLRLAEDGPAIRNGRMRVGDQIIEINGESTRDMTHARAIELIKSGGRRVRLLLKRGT

Row | Binder | pKd (MPDZ_12, O75970) | pKd (Inadl_1, Q8NI35) | pKd (MPP2, Q14168) | pKd (PTPN3, P26045) | pKd (SHANK1, Q9Y566) | pKd (DLG4_2, P78352) | pKd (SCRIB_3, Q14160) | pKd (IL16_3, Q14005) | pKd (LIMK2, P53671) | pKd (CASK, O14936) | pKd (MAGI3_2, Q5TCQ9) | pKd (Inadl_8, Q8NI35) | pKd (DLG3_3, Q92796) | pKd (GRIP2_3, Q9C0E4) | pKd (APBA3_1, O96018) | pKd (MAGI2_4, Q86UL8) | pKd (GRIP2_4, Q9C0E4) | pKd (DFNB31_3, Q9P202) | pKd (TJP1_3, Q07157) | pKd (LDB3, O75112) | also measured
1 | ATKDKKITTV [EXOC4, Q96A65] | below the threshold | below the threshold | below the threshold | 4.31 | below the threshold | 5.85 | 3.84 | below the threshold | below the threshold | below the threshold | 5.31 | 4.42 | 4.56 | 3.51 | below the threshold | 4.51 | below the threshold | below the threshold | below the threshold | below the threshold | pKd (GRIP2_5, Q9C0E4): 3.49; pKd (GRIP2_6, Q9C0E4): below the threshold; pKd (FRMPD3, Q5JV73): below the threshold; pKd (PDZD7_3, Q9H5P4): 5.64; pKd (DLG4_1, P78352): 5.25; pKd (LNX2_2, Q8N448): 5.24; pKd (DFNB31_1, Q9P202): 3.58; pKd (MPP6, Q9NZW5): below the threshold; pKd (MAGI2_6, Q86UL8): 3.72
2 | GDSSRKEYFI [GYPC, P04921] | 3.5 | 4.12 | 4.36 | 4.16 | below the threshold | 3.61 | 4.13 | below the threshold | below the threshold | below the threshold | 4.41 | below the threshold | below the threshold | below the threshold | below the threshold | below the threshold | below the threshold | 3.81 | below the threshold | below the threshold | pKd (GRIP2_5, Q9C0E4): below the threshold; pKd (GRIP2_6, Q9C0E4): 4.67; pKd (FRMPD3, Q5JV73): below the threshold; pKd (PDZD7_3, Q9H5P4): below the threshold; pKd (DLG4_1, P78352): below the threshold; pKd (LNX2_2, Q8N448): below the threshold; pKd (DFNB31_1, Q9P202): below the threshold; pKd (MPP6, Q9NZW5): 4.7; pKd (MAGI2_6, Q86UL8): below the threshold
3 | GSQSQVETEA [FKBP4, Q02790] | 3.52 | below the threshold | below the threshold | 4.08 | 3.64 | 3.59 | 4.04 | below the threshold | below the threshold | below the threshold | below the threshold | below the threshold | below the threshold | below the threshold | below the threshold | below the threshold | below the threshold | below the threshold | below the threshold | below the threshold | pKd (GRIP2_5, Q9C0E4): below the threshold; pKd (GRIP2_6, Q9C0E4): below the threshold; pKd (FRMPD3, Q5JV73): below the threshold; pKd (PDZD7_3, Q9H5P4): below the threshold; pKd (DLG4_1, P78352): below the threshold; pKd (LNX2_2, Q8N448): below the threshold; pKd (DFNB31_1, Q9P202): below the threshold; pKd (MPP6, Q9NZW5): below the threshold; pKd (MAGI2_6, Q86UL8): below the threshold
4 | SRPHTNETSL [MCC, P23508] | below the threshold | below the threshold | below the threshold | 4.9 | 4.17 | 3.83 | 5.13 | below the threshold | below the threshold | below the threshold | 4.09 | below the threshold | 3.95 | below the threshold | below the threshold | below the threshold | below the threshold | below the threshold | below the threshold | below the threshold | pKd (GRIP2_5, Q9C0E4): below the threshold; pKd (GRIP2_6, Q9C0E4): below the threshold; pKd (FRMPD3, Q5JV73): below the threshold; pKd (PDZD7_3, Q9H5P4): 4.36; pKd (DLG4_1, P78352): below the threshold; pKd (LNX2_2, Q8N448): below the threshold; pKd (DFNB31_1, Q9P202): 4.28; pKd (MPP6, Q9NZW5): below the threshold; pKd (MAGI2_6, Q86UL8): 3.8
